Source: the supplement of paper PMC9112550, “Optimization of the antimicrobial peptide Bac7 by deep mutational scanning” (BMC Biology, 2022)

System: Escherichia coli TOP10
Test: shrunken log2 fold change of peptide-encoding DNA abundance (4.5 h post-induction vs induction); higher = less antimicrobial activity (less host growth inhibition)
Details: time post-induction: 4.5 h; library: site-saturation at positions 5, 18, 19, 20
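Further: peptides expressed intracellularly from a pBAD plasmid library in pooled LB shake-flask culture, induced with 0.3% L-arabinose, DNA abundance read by NGS, three biological replicates, DESeq2 with apeglm shrinkage.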

| Sequence | shrunken log2 fold change |
| --- | --- |
| RRIRDRPPRLPRPRPRPKYLPRP | -0.131 |
| RRIRDRPPRLPRPRPRPKYYPRP | -0.193 |
| RRIRDRPPRLPRPRPRPLAAPRP | 0.913 |
| RRIRDRPPRLPRPRPRPLEHPRP | -0.164 |
| RRIRDRPPRLPRPRPRPLENPRP | 0.035 |
| RRIRDRPPRLPRPRPRPLERPRP | 0.464 |
| RRIRDRPPRLPRPRPRPLEYPRP | 0.061 |
| RRIRDRPPRLPRPRPRPLFDPRP | 0.393 |
| RRIRDRPPRLPRPRPRPLFSPRP | 0.0525 |
| RRIRDRPPRLPRPRPRPLGQPRP | 0.0401 |
| RRIRDRPPRLPRPRPRPLHMPRP | -0.0438 |
| RRIRDRPPRLPRPRPRPLINPRP | 0.125 |
| RRIRDRPPRLPRPRPRPLIYPRP | -0.653 |
| RRIRDRPPRLPRPRPRPLKMPRP | 0.122 |
| RRIRDRPPRLPRPRPRPLKNPRP | 0.0245 |
| RRIRDRPPRLPRPRPRPLKQPRP | 0.681 |
| RRIRDRPPRLPRPRPRPLLIPRP | 0.338 |
| RRIRDRPPRLPRPRPRPLLPPRP | 0.356 |
| RRIRDRPPRLPRPRPRPLMKPRP | -0.19 |
| RRIRDRPPRLPRPRPRPLMPPRP | 0.097 |
| RRIRDRPPRLPRPRPRPLQEPRP | 0.223 |
| RRIRDRPPRLPRPRPRPLQKPRP | -0.0982 |
| RRIRDRPPRLPRPRPRPLRFPRP | 0.61 |
| RRIRDRPPRLPRPRPRPLRYPRP | 0.00765 |
| RRIRDRPPRLPRPRPRPLSEPRP | 0.111 |

| Sequence | shrunken log2 fold change |
| --- | --- |
| RRIRDRPPRLPRPRPRPLSGPRP | -0.0838 |
| RRIRDRPPRLPRPRPRPLSSPRP | 0.184 |
| RRIRDRPPRLPRPRPRPLTRPRP | -0.00589 |
| RRIRDRPPRLPRPRPRPLWFPRP | -0.0862 |
| RRIRDRPPRLPRPRPRPLWRPRP | 0.152 |
| RRIRDRPPRLPRPRPRPLYEPRP | -0.0254 |
| RRIRDRPPRLPRPRPRPLYGPRP | -0.105 |
| RRIRDRPPRLPRPRPRPLYWPRP | -0.112 |
| RRIRDRPPRLPRPRPRPMAHPRP | -0.00211 |
| RRIRDRPPRLPRPRPRPMEQPRP | -0.164 |
| RRIRDRPPRLPRPRPRPMFMPRP | 0.169 |
| RRIRDRPPRLPRPRPRPMFNPRP | -0.0203 |
| RRIRDRPPRLPRPRPRPMHRPRP | -0.0439 |
| RRIRDRPPRLPRPRPRPMIKPRP | -0.222 |
| RRIRDRPPRLPRPRPRPMKYPRP | 0.0311 |
| RRIRDRPPRLPRPRPRPMLFPRP | -0.0792 |
| RRIRDRPPRLPRPRPRPMNIPRP | -0.0931 |
| RRIRDRPPRLPRPRPRPMREPRP | -0.0167 |
| RRIRDRPPRLPRPRPRPMTAPRP | -0.0214 |
| RRIRDRPPRLPRPRPRPMTKPRP | -0.0341 |
| RRIRDRPPRLPRPRPRPMVVPRP | -0.0202 |
| RRIRDRPPRLPRPRPRPMWSPRP | -0.0459 |
| RRIRDRPPRLPRPRPRPMYMPRP | -0.00623 |
| RRIRDRPPRLPRPRPRPMYRPRP | -0.0107 |
| RRIRDRPPRLPRPRPRPMYSPRP | 0.0101 |

| Sequence | shrunken log2 fold change |
| --- | --- |
| RRIRDRPPRLPRPRPRPNCPPRP | -0.00232 |
| RRIRDRPPRLPRPRPRPNDNPRP | -0.563 |
| RRIRDRPPRLPRPRPRPNDSPRP | -0.134 |
| RRIRDRPPRLPRPRPRPNENPRP | -0.177 |
| RRIRDRPPRLPRPRPRPNFPPRP | -0.0273 |
| RRIRDRPPRLPRPRPRPNGTPRP | 0.00868 |
| RRIRDRPPRLPRPRPRPNGVPRP | -0.0244 |
| RRIRDRPPRLPRPRPRPNHQPRP | -0.303 |
| RRIRDRPPRLPRPRPRPNICPRP | 0.153 |
| RRIRDRPPRLPRPRPRPNIMPRP | -0.367 |
| RRIRDRPPRLPRPRPRPNIYPRP | -0.3 |
| RRIRDRPPRLPRPRPRPNKGPRP | -0.00129 |
| RRIRDRPPRLPRPRPRPNKPPRP | -0.0743 |
| RRIRDRPPRLPRPRPRPNKRPRP | -0.14 |
| RRIRDRPPRLPRPRPRPNLHPRP | -0.0379 |
| RRIRDRPPRLPRPRPRPNLRPRP | -0.162 |
| RRIRDRPPRLPRPRPRPNLWPRP | -0.0934 |
| RRIRDRPPRLPRPRPRPNMVPRP | 0.136 |
| RRIRDRPPRLPRPRPRPNNNPRP | -0.667 |
| RRIRDRPPRLPRPRPRPNNPPRP | -0.357 |
| RRIRDRPPRLPRPRPRPNNRPRP | -0.178 |
| RRIRDRPPRLPRPRPRPNQLPRP | -0.0966 |
| RRIRDRPPRLPRPRPRPNQNPRP | 0.0279 |
| RRIRDRPPRLPRPRPRPNQSPRP | -0.527 |
| RRIRDRPPRLPRPRPRPNQWPRP | 0.151 |

| Sequence | shrunken log2 fold change |
| --- | --- |
| RRIRDRPPRLPRPRPRPNRDPRP | -0.0372 |
| RRIRDRPPRLPRPRPRPNRNPRP | -0.227 |
| RRIRDRPPRLPRPRPRPNSHPRP | 0.0526 |
| RRIRDRPPRLPRPRPRPNTCPRP | -0.0241 |
| RRIRDRPPRLPRPRPRPNVIPRP | -0.0253 |
| RRIRDRPPRLPRPRPRPNWIPRP | -0.389 |
| RRIRDRPPRLPRPRPRPNWSPRP | -0.0955 |
| RRIRDRPPRLPRPRPRPNYEPRP | -0.252 |
| RRIRDRPPRLPRPRPRPNYMPRP | -0.216 |
| RRIRDRPPRLPRPRPRPNYWPRP | -0.218 |
| RRIRDRPPRLPRPRPRPPAPPRP | 1.05 |
| RRIRDRPPRLPRPRPRPPCLPRP | -0.264 |
| RRIRDRPPRLPRPRPRPPCMPRP | -0.317 |
| RRIRDRPPRLPRPRPRPPDRPRP | 0.468 |
| RRIRDRPPRLPRPRPRPPDWPRP | 0.421 |
| RRIRDRPPRLPRPRPRPPEPPRP | 0.84 |
| RRIRDRPPRLPRPRPRPPFEPRP | 0.254 |
| RRIRDRPPRLPRPRPRPPFSPRP | 0.0121 |
| RRIRDRPPRLPRPRPRPPHQPRP | -0.022 |
| RRIRDRPPRLPRPRPRPPHVPRP | 0.0772 |
| RRIRDRPPRLPRPRPRPPMEPRP | -0.0667 |
| RRIRDRPPRLPRPRPRPPMMPRP | -0.0737 |
| RRIRDRPPRLPRPRPRPPMPPRP | 0.203 |
| RRIRDRPPRLPRPRPRPPNAPRP | 0.617 |
| RRIRDRPPRLPRPRPRPPNPPRP | 0.0735 |

| Sequence | shrunken log2 fold change |
| --- | --- |
| RRIRDRPPRLPRPRPRPPPNPRP | 0.84 |
| RRIRDRPPRLPRPRPRPPQLPRP | 0.143 |
| RRIRDRPPRLPRPRPRPPTDPRP | 0.564 |
| RRIRDRPPRLPRPRPRPPTGPRP | 0.522 |
| RRIRDRPPRLPRPRPRPPVDPRP | 0.361 |
| RRIRDRPPRLPRPRPRPPVTPRP | -0.0696 |
| RRIRDRPPRLPRPRPRPPWEPRP | 0.0453 |
| RRIRDRPPRLPRPRPRPQDIPRP | -0.00598 |
| RRIRDRPPRLPRPRPRPQGEPRP | -0.0304 |
| RRIRDRPPRLPRPRPRPQGQPRP | 0.000653 |
| RRIRDRPPRLPRPRPRPQGWPRP | 0.693 |
| RRIRDRPPRLPRPRPRPQHHPRP | -0.299 |
| RRIRDRPPRLPRPRPRPQHYPRP | -0.856 |
| RRIRDRPPRLPRPRPRPQILPRP | 0.132 |
| RRIRDRPPRLPRPRPRPQITPRP | -0.0201 |
| RRIRDRPPRLPRPRPRPQKRPRP | -0.00561 |
| RRIRDRPPRLPRPRPRPQMMPRP | -0.211 |
| RRIRDRPPRLPRPRPRPQMPPRP | -0.486 |
| RRIRDRPPRLPRPRPRPQNQPRP | -0.0268 |
| RRIRDRPPRLPRPRPRPQPEPRP | 0.106 |
| RRIRDRPPRLPRPRPRPQPPPRP | 0.424 |
| RRIRDRPPRLPRPRPRPQPYPRP | -0.651 |
| RRIRDRPPRLPRPRPRPQRTPRP | 0.0905 |
| RRIRDRPPRLPRPRPRPQSEPRP | 0.0514 |
| RRIRDRPPRLPRPRPRPQSSPRP | 0.0176 |

| Sequence | shrunken log2 fold change |
| --- | --- |
| RRIRDRPPRLPRPRPRPQSTPRP | -0.466 |
| RRIRDRPPRLPRPRPRPQVDPRP | -0.0156 |
| RRIRDRPPRLPRPRPRPQVKPRP | -0.0431 |
| RRIRDRPPRLPRPRPRPQWIPRP | -0.222 |
| RRIRDRPPRLPRPRPRPQYDPRP | -0.0265 |
| RRIRDRPPRLPRPRPRPQYGPRP | -0.414 |
| RRIRDRPPRLPRPRPRPRALPRP | 0.226 |
| RRIRDRPPRLPRPRPRPRAQPRP | 0.457 |
| RRIRDRPPRLPRPRPRPRCSPRP | -0.0967 |
| RRIRDRPPRLPRPRPRPREHPRP | -0.118 |
| RRIRDRPPRLPRPRPRPRHKPRP | 0.227 |
| RRIRDRPPRLPRPRPRPRHSPRP | -0.043 |
| RRIRDRPPRLPRPRPRPRIPPRP | -0.108 |
| RRIRDRPPRLPRPRPRPRKLPRP | 0.0892 |
| RRIRDRPPRLPRPRPRPRLTPRP | 0.41 |
| RRIRDRPPRLPRPRPRPRNWPRP | 0.615 |
| RRIRDRPPRLPRPRPRPRPHPRP | 0.465 |
| RRIRDRPPRLPRPRPRPRQGPRP | 0.0779 |
| RRIRDRPPRLPRPRPRPRRDPRP | 0.492 |
| RRIRDRPPRLPRPRPRPRSGPRP | 0.276 |
| RRIRDRPPRLPRPRPRPRTEPRP | 0.0904 |
| RRIRDRPPRLPRPRPRPRTQPRP | 0.168 |
| RRIRDRPPRLPRPRPRPRYGPRP | -0.0472 |
| RRIRDRPPRLPRPRPRPRYNPRP | -0.513 |
| RRIRDRPPRLPRPRPRPSACPRP | 0.294 |
